According to article PMC6927645, “Self-association of human beta-galactocerebrosidase: Dependence on pH, salt, and surfactant” (PLoS ONE, 2019):

Molecular target: the molecule itself
Assay: AUC; sedimentation velocity dilution series, 40,000 rpm, 20°C, Rayleigh optics; 5 mM sodium phosphate pH 6.0 with 50, 150 or 500 mM NaCl; Wide Distribution Analysis and fits in SedAnal; self-association of monomer to higher oligomers

B1: recombinant human galactocerebrosidase (hGALC) (enzyme, UniProt P54803 43-685, looked up)
chain: YVLDDSDGLGREFDGIGAVSGGGATSRLLVNYPEPYRSQILDYLFKPNFGASLHILKVEIGGDGQTTDGTEPSHMHYALDENYFRGYEWWLMKEAKKRNPNITLIGLPWSFPGWLGKGFDWPYVNLQLTAYYVVTWIVGAKRYHDLDIDYIGIWNERSYNANYIKILRKMLNYQGLQRVKIIASDNLWESISASMLLDAELFKVVDVIGAHYPGTHSAKDAKLTGKKLWSSEDFSTLNSDMGAGCWGRILNQNYINGYMTSTIAWNLVASYYEQLPYGRCGLMTAQEPWSGHYVVESPVWVSAHTTQFTQPGWYYLKTVGHLEKGGSYVALTDGLGNLTIIIETMSHKHSKCIRPFLPYFNVSQQFATFVLKGSFSEIPELQVWYTKLGKTSERFLFKQLDSLWLLDSDGSFTLSLHEDELFTLTTLTTGRKGSYPLPPKSQPFPSTYKDDFNVDYPFFSEAPNFADQTGVFEYFTNIEDPGEHHFTLRQVLNQRPITWAADASNTISIIGDYNWTNLTIKCDVYIETPDTGGVFIAGRVNKGGILIRSARGIFFWIFANGSYRVTGDLAGWIIYALGRVEVTAKKWYTLTLTIKGHFTSGMLNDKSLWTDIPVNFPKNGWAAIGTHSFEFAQFDNFLVEATR
modifications: heavily glycosylated; glycan structures not determined
notes: human galactocerebrosidase (GALC); The protein was recovered from the culture broth, and the computed 73 kDa protein moiety fits the precursor without its signal peptide (surmised); No tag is mentioned; also called human beta-galactocerebrosidase; galactocerebrosidase enzyme; source: virus filtration; ultrafiltration/diafiltration)
stoichiometry N: ≥ 4
